Laboratory results: patent publication US10421817 (BEIJING MABWORKS BIOTECH, dated 2019)

target: T1, human Claudin 18.1 (human, UniProt P56856 1-261); test: FACS on HEK293A/hClaudin 18.1 cells
T1 construct: Overexpressed on HEK293A cells by lentivirus
T1 sequence (P56856 whole entry): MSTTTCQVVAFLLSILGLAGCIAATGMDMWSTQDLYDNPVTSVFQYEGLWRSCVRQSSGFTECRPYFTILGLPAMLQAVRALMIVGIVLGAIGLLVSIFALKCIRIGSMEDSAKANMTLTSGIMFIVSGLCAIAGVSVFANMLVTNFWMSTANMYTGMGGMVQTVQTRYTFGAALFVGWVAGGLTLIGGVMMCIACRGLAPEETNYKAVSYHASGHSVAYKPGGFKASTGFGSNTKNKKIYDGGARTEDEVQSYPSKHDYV

Row | binding result | Binder
1 | no binding | 18F2-30-VH5VL0 (antibody, human IgG1, kappa, V domains shown, Humanized, human IgG1/kappa constant regions) VH: QVQLVQSGAEVKKPGASVKVSCKASGYTFTSFWLNWVRQRPGQGLEWIGNIYPSTSYTVYNQKFKDRVTLTVDKSTSTAYMELSSLRSEDTAVYYCTRTWRGNSFDYWGQGTTVTVSS VL: DIVMTQSPDSLAVSLGERATINCKSSQSLLNSGNQKNYVTWYQQKPGQPPKLLIYWGSTRSTGVPDRFSGSGSGTDFTLTISSLQAEDVAVYYCQNDYTYPFTFGQGTKLEIKR
2 | no binding | 18F2-35VH4VL0 (antibody, human IgG1, kappa, V domains shown, Humanized, human IgG1/kappa constant regions) VH: QVQLVQSGAEVKKPGASVKVSCKASGYTFTSFWLNWVRQRPGQGLEWIGNIYPSTSYTIYNQKFKDRVTLTVDKSTSTVYMELSSLRSEDTAVYYCARTWRGNSFDYWGQGTTVTVSS VL: DIVMTQSPDSLAVSLGERATINCKSSQSLLNSGNQKNYLTWYQQKPGQPPKLLIYWGSTRVRGVPDRFSGSGSGTDFTLTISSLQAEDVAVYYCQNDYTYPFTFGQGTKLEIKR
3 | no binding | 18F2-5VH7VL2 (antibody, human IgG1, kappa, Humanized, human IgG1/kappa constant regions) heavy: not shown light: DIVMTQSPSSLTVSLGEKATINCKSNQSLLNSGNQKNYVTWYQQKPGQPPKLLIYWGSTRVRGVPDRFSGSGSGTDFTLTISSLQAEDLAVYYCQNDYTYPFTFGQGTKLEIKRTVAAPSVFIFPPSDEQLKSGTASVVCLLNNFYPREAKVQWKVDNALQSGNSQESVTEQDSKDSTYSLSSTLTLSKADYEKHKVYACEVTHQGLSSPVTKSFNRGEC
4 | no binding | 18F2-5VH7VL3 (antibody, human IgG1, kappa, Humanized, human IgG1/kappa constant regions) heavy: not shown light: DIVMTQSPSSLTVSLGEKATISCKSNQSLLNSGNQKNYVTWYQQKPGQPPKLLIYWGSTRVRGVPDRFSGSGSGTDFTLTISSLQAEDLAVYYCQNDYTYPFTFGSGTKLEIKRTVAAPSVFIFPPSDEQLKSGTASVVCLLNNFYPREAKVQWKVDNALQSGNSQESVTEQDSKDSTYSLSSTLTLSKADYEKHKVYACEVTHQGLSSPVTKSFNRGEC
5 | no binding | 18F2-5VH3VL0 (antibody, human IgG1, kappa, V domains shown, Humanized, human IgG1/kappa constant regions) VH: QVQLVQSGAEVKKPGASVKVSCKASGYTFTSFWLNWVRQAPGQGLEWIGNIYPSTSYTVYNQKFKDRVTLTVDTSTSTVYMELSSLRSEDTAVYYCARTWRGNSFDLWGQGTTVTVSS VL: DIVMTQSPDSLAVSLGERATINCKSNQSLLNSGNQKNYVTWYQQKPGQPPKLLIYWGSTRVRGVPDRFSGSGSGTDFTLTISSLQAEDVAVYYCQNDYTYPFTFGQGTKLEIKR
6 | no binding | 18F2-5VH4VL0 (antibody, human IgG1, kappa, V domains shown, Humanized, human IgG1/kappa constant regions) VH: QVQLVQSGAEVKKPGASVKVSCKASGYTFTSFWLNWVRQRPGQGLEWIGNIYPSTSYTVYNQKFKDRVTLTVDKSTSTVYMELSSLRSEDTAVYYCARTWRGNSFDLWGQGTTVTVSS VL: DIVMTQSPDSLAVSLGERATINCKSNQSLLNSGNQKNYVTWYQQKPGQPPKLLIYWGSTRVRGVPDRFSGSGSGTDFTLTISSLQAEDVAVYYCQNDYTYPFTFGQGTKLEIKR
7 | no binding | 18F2-35VH5VL0 (antibody, human IgG1, kappa, V domains shown, Humanized, human IgG1/kappa constant regions) VH: QVQLVQSGAEVKKPGASVKVSCKASGYTFTSFWLNWVRQRPGQGLEWIGNIYPSTSYTIYNQKFKDRVTLTVDKSTSTAYMELSSLRSEDTAVYYCTRTWRGNSFDYWGQGTTVTVSS VL: DIVMTQSPDSLAVSLGERATINCKSSQSLLNSGNQKNYLTWYQQKPGQPPKLLIYWGSTRVRGVPDRFSGSGSGTDFTLTISSLQAEDVAVYYCQNDYTYPFTFGQGTKLEIKR
8 | no binding | 18F2-5VH6VL3 (antibody, human IgG1, kappa, Humanized, human IgG1/kappa constant regions) heavy: not shown light: DIVMTQSPSSLTVSLGEKATISCKSNQSLLNSGNQKNYVTWYQQKPGQPPKLLIYWGSTRVRGVPDRFSGSGSGTDFTLTISSLQAEDLAVYYCQNDYTYPFTFGSGTKLEIKRTVAAPSVFIFPPSDEQLKSGTASVVCLLNNFYPREAKVQWKVDNALQSGNSQESVTEQDSKDSTYSLSSTLTLSKADYEKHKVYACEVTHQGLSSPVTKSFNRGEC
9 | no binding | 18F2-5VH6VL0 (antibody, human IgG1, kappa, V domains shown, Humanized, human IgG1/kappa constant regions) VH: QVQLVQSGAEVKKPGASVKVSCKASGYTFTSFWLNWVRQRPGQGLEWIGNIYPSTSYTVYNQKFKDRVTLTVDKSSSTAYMELSSLTSEDTAVYYCTRTWRGNSFDLWGQGTTVTVSS VL: DIVMTQSPDSLAVSLGERATINCKSNQSLLNSGNQKNYVTWYQQKPGQPPKLLIYWGSTRVRGVPDRFSGSGSGTDFTLTISSLQAEDVAVYYCQNDYTYPFTFGQGTKLEIKR
10 | no binding | 18F2-5VH5VL0 (antibody, human IgG1, kappa, V domains shown, Humanized, human IgG1/kappa constant regions) VH: QVQLVQSGAEVKKPGASVKVSCKASGYTFTSFWLNWVRQRPGQGLEWIGNIYPSTSYTVYNQKFKDRVTLTVDKSTSTAYMELSSLRSEDTAVYYCTRTWRGNSFDLWGQGTTVTVSS VL: DIVMTQSPDSLAVSLGERATINCKSNQSLLNSGNQKNYVTWYQQKPGQPPKLLIYWGSTRVRGVPDRFSGSGSGTDFTLTISSLQAEDVAVYYCQNDYTYPFTFGQGTKLEIKR
11 | no binding | 18F2-30-VH6VL3 (antibody, human IgG1, kappa, Humanized, human IgG1/kappa constant regions) heavy: not shown light: DIVMTQSPSSLTVSLGEKATISCKSSQSLLNSGNQKNYVTWYQQKPGQPPKLLIYWGSTRSTGVPDRFSGSGSGTDFTLTISSLQAEDLAVYYCQNDYTYPFTFGSGTKLEIKRTVAAPSVFIFPPSDEQLKSGTASVVCLLNNFYPREAKVQWKVDNALQSGNSQESVTEQDSKDSTYSLSSTLTLSKADYEKHKVYACEVTHQGLSSPVTKSFNRGEC
12 | no binding | 18F2-35VH6VL0 (antibody, human IgG1, kappa, V domains shown, Humanized, human IgG1/kappa constant regions) VH: QVQLVQSGAEVKKPGASVKVSCKASGYTFTSFWLNWVRQRPGQGLEWIGNIYPSTSYTIYNQKFKDRVTLTVDKSSSTAYMELSSLTSEDTAVYYCTRTWRGNSFDYWGQGTTVTVSS VL: DIVMTQSPDSLAVSLGERATINCKSSQSLLNSGNQKNYLTWYQQKPGQPPKLLIYWGSTRVRGVPDRFSGSGSGTDFTLTISSLQAEDVAVYYCQNDYTYPFTFGQGTKLEIKR
13 | no binding | 18F2-35VH3VL0 (antibody, human IgG1, kappa, V domains shown, Humanized, human IgG1/kappa constant regions) VH: QVQLVQSGAEVKKPGASVKVSCKASGYTFTSFWLNWVRQAPGQGLEWIGNIYPSTSYTIYNQKFKDRVTLTVDTSTSTVYMELSSLRSEDTAVYYCARTWRGNSFDYWGQGTTVTVSS VL: DIVMTQSPDSLAVSLGERATINCKSSQSLLNSGNQKNYLTWYQQKPGQPPKLLIYWGSTRVRGVPDRFSGSGSGTDFTLTISSLQAEDVAVYYCQNDYTYPFTFGQGTKLEIKR
14 | no binding | 18F2-30-VH6VL0 (antibody, human IgG1, kappa, V domains shown, Humanized, human IgG1/kappa constant regions) VH: QVQLVQSGAEVKKPGASVKVSCKASGYTFTSFWLNWVRQRPGQGLEWIGNIYPSTSYTVYNQKFKDRVTLTVDKSSSTAYMELSSLTSEDTAVYYCTRTWRGNSFDYWGQGTTVTVSS VL: DIVMTQSPDSLAVSLGERATINCKSSQSLLNSGNQKNYVTWYQQKPGQPPKLLIYWGSTRSTGVPDRFSGSGSGTDFTLTISSLQAEDVAVYYCQNDYTYPFTFGQGTKLEIKR
15 | no binding | 18F2-35VH2VL0 (antibody, human IgG1, kappa, V domains shown, Humanized, human IgG1/kappa constant regions) VH: QVQLVQSGAEVKKPGASVKVSCKASGYTFTSFWLNWVRQAPGQGLEWIGNIYPSTSYTIYNQKFKDRVTLTVDKSTSTVYMELSSLRSEDTAVYYCARTWRGNSFDYWGQGTTVTVSS VL: DIVMTQSPDSLAVSLGERATINCKSSQSLLNSGNQKNYLTWYQQKPGQPPKLLIYWGSTRVRGVPDRFSGSGSGTDFTLTISSLQAEDVAVYYCQNDYTYPFTFGQGTKLEIKR
16 | no binding | 18F2-30-VH2VL0 (antibody, human IgG1, kappa, V domains shown, Humanized, human IgG1/kappa constant regions) VH: QVQLVQSGAEVKKPGASVKVSCKASGYTFTSFWLNWVRQAPGQGLEWIGNIYPSTSYTVYNQKFKDRVTLTVDKSTSTVYMELSSLRSEDTAVYYCARTWRGNSFDYWGQGTTVTVSS VL: DIVMTQSPDSLAVSLGERATINCKSSQSLLNSGNQKNYVTWYQQKPGQPPKLLIYWGSTRSTGVPDRFSGSGSGTDFTLTISSLQAEDVAVYYCQNDYTYPFTFGQGTKLEIKR
17 | no binding | 18F2-30-VH4VL0 (antibody, human IgG1, kappa, V domains shown, Humanized, human IgG1/kappa constant regions) VH: QVQLVQSGAEVKKPGASVKVSCKASGYTFTSFWLNWVRQRPGQGLEWIGNIYPSTSYTVYNQKFKDRVTLTVDKSTSTVYMELSSLRSEDTAVYYCARTWRGNSFDYWGQGTTVTVSS VL: DIVMTQSPDSLAVSLGERATINCKSSQSLLNSGNQKNYVTWYQQKPGQPPKLLIYWGSTRSTGVPDRFSGSGSGTDFTLTISSLQAEDVAVYYCQNDYTYPFTFGQGTKLEIKR
18 | no binding | 18F2-5VH6VL2 (antibody, human IgG1, kappa, Humanized, human IgG1/kappa constant regions) heavy: not shown light: DIVMTQSPSSLTVSLGEKATINCKSNQSLLNSGNQKNYVTWYQQKPGQPPKLLIYWGSTRVRGVPDRFSGSGSGTDFTLTISSLQAEDLAVYYCQNDYTYPFTFGQGTKLEIKRTVAAPSVFIFPPSDEQLKSGTASVVCLLNNFYPREAKVQWKVDNALQSGNSQESVTEQDSKDSTYSLSSTLTLSKADYEKHKVYACEVTHQGLSSPVTKSFNRGEC
19 | no binding | 18F2-30-VH7VL0 (antibody, human IgG1, kappa, V domains shown, Humanized, human IgG1/kappa constant regions) VH: QVQLVQSGAEVKKPGASVKVSCKASGYTFTSFWLNWVKQRPGQGLEWIGNIYPSTSYTVYNQKFKDKVTLTVDKSTSTAYMELSSLRSEDTAVYYCTRTWRGNSFDYWGQGTTVTVSS VL: DIVMTQSPDSLAVSLGERATINCKSSQSLLNSGNQKNYVTWYQQKPGQPPKLLIYWGSTRSTGVPDRFSGSGSGTDFTLTISSLQAEDVAVYYCQNDYTYPFTFGQGTKLEIKR
20 | no binding | 18F2-5VH0VL0 (antibody, human IgG1, kappa, V domains shown, Humanized, human IgG1/kappa constant regions; also called 18F2-SVH0VL0) VH: QVQLVQSGAEVKKPGASVKVSCKASGYTFTSFWLNWVRQAPGQGLEWMGNIYPSTSYTVYNQKFKDRVTMTRDTSTSTVYMELSSLRSEDTAVYYCARTWRGNSFDLWGQGTTVTVSS VL: DIVMTQSPDSLAVSLGERATINCKSNQSLLNSGNQKNYVTWYQQKPGQPPKLLIYWGSTRVRGVPDRFSGSGSGTDFTLTISSLQAEDVAVYYCQNDYTYPFTFGQGTKLEIKR
21 | no binding | 18F2-30-VH3VL0 (antibody, human IgG1, kappa, V domains shown, Humanized, human IgG1/kappa constant regions) VH: QVQLVQSGAEVKKPGASVKVSCKASGYTFTSFWLNWVRQAPGQGLEWIGNIYPSTSYTVYNQKFKDRVTLTVDTSTSTVYMELSSLRSEDTAVYYCARTWRGNSFDYWGQGTTVTVSS VL: DIVMTQSPDSLAVSLGERATINCKSSQSLLNSGNQKNYVTWYQQKPGQPPKLLIYWGSTRSTGVPDRFSGSGSGTDFTLTISSLQAEDVAVYYCQNDYTYPFTFGQGTKLEIKR
